{"source": "paper doi:10.1101/2023.02.23.529587", "about": "(bioRxiv, 2023)", "binders": {"B1": {"name": "OdhI from Corynebacterium glutamicum ATCC13032 (natural protein, UniProt Q8NQJ3 1-143, looked up)", "chain": "MSDNNGTPEPQVETTSVFRADLLKEMESSTGTAPASTGAENLPAGSALLVVKRGPNAGARFLLDQPTTTAGRHPESDIFLDDVTVSRRHAEFRINEGEFEVVDVGSLNGTYVNREPRNAQVMQTGDEIQIGKFRLVFLAGPAE"}, "B2": {"name": "full-length OdhA from Corynebacterium glutamicum ATCC13032 (enzyme, UniProt Q8NRC3 1-1221, looked up)", "chain": "MSSASTFGQNAWLVDEMFQQFQKDPKSVDKEWRELFEAQGGPNTTPATTEAQPSAPKESAKPAPKAAPAAKAAPRVETKPADKTAPKAKESSVPQQPKLPEPGQTPIRGIFKSIAKNMDISLEIPTATSVRDMPARLMFENRAMVNDQLKRTRGGKISFTHIIGYAMVKAVMAHPDMNNSYDVIDGKPTLIVPEHINLGLAIDLPQKDGSRALVVAAIKETEKMNFSEFLAAYEDIVARSRKGKLTMDDYQGVTVSLTNPGGIGTRHSVPRLTKGQGTIIGVGSMDYPAEFQGASEDRLAELGVGKLVTITSTYDHRVIQGAVSGEFLRTMSRLLTDDSFWDEIFDAMNVPYTPMRWAQDVPNTGVDKNTRVMQLIEAYRSRGHLIADTNPLSWVQPGMPVPDHRDLDIETHNLTIWDLDRTFNVGGFGGKETMTLREVLSRLRAAYTLKVGSEYTHILDRDERTWLQDRLEAGMPKPTQAEQKYILQKLNAAEAFENFLQTKYVGQKRFSLEGAEALIPLMDSAIDTAAGQGLDEVVIGMPHRGRLNVLFNIVGKPLASIFNEFEGQMEQGQIGGSGDVKYHLGSEGQHLQMFGDGEIKVSLTANPSHLEAVNPVMEGIVRAKQDYLDKGVDGKTVVPLLLHGDAAFAGLGIVPETINLAKLRGYDVGGTIHIVVNNQIGFTTTPDSSRSMHYATDYAKAFGCPVFHVNGDDPEAVVWVGQLATEYRRRFGKDVFIDLVCYRLRGHNEADDPSMTQPKMYELITGRETVRAQYTEDLLGRGDLSNEDAEAVVRDFHDQMESVFNEVKEGGKKQAEAQTGITGSQKLPHGLETNISREELLELGQAFANTPEGFNYHPRVAPVAKKRVSSVTEGGIDWAWGELLAFGSLANSGRLVRLAGEDSRRGTFTQRHAVAIDPATAEEFNPLHELAQSKGNNGKFLVYNSALTEYAGMGFEYGYSVGNEDSIVAWEAQFGDFANGAQTIIDEYVSSGEAKWGQTSKLILLLPHGYEGQGPDHSSARIERFLQLCAEGSMTVAQPSTPANHFHLLRRHALSDLKRPLVIFTPKSMLRNKAAASAPEDFTEVTKFQSVINDPNVADAAKVKKVMLVSGKLYYELAKRKEKDGRDDIAIVRIEMLHPIPFNRISEALAGYPNAEEVLFVQDEPANQGPWPFYQEHLPELIPNMPKMRRVSRRAQSSTATGVAKVHQLEEKQLIDEAFEA"}, "B3": {"name": "full-length KGD from Mycobacterium smegmatis (enzyme, UniProt A0R2B1 1-1227, looked up)", "chain": "MSSSPSPFGQNEWLVEEMYRKFRDDPSSVDPSWHEFLVDYSPEPTTDSASNGRTTTAAPVTPPTPAPAPAPEPKAAPKPAAKTEAKPAKPAKSATPAKGDESQILRGAAAAVVKNMNASLEVPTATSVRAIPAKLMIDNRVVINNHLKRTRGGKISFTHLLGYAIVQAVKKFPNMNRHFAVVDGKPTAITPAHTNLGLAIDLQGKDGNRSLVVAAIKRCETMRFGQFIAAYEDIVRRARDGKLTAEDFSGVTISLTNPGTLGTVHSVPRLMQGQGAIIGAGAMEYPAEFQGASEERIADLGIGKLITLTSTYDHRIIQGAESGDFLRTIHQLLLDDDFFDEIFRELGIPYEPVRWRTDNPDSIEDKNARVIELIAAYRNRGHLMADIDPLRLDNTRFRSHPDLDVNSHGLTLWDLDREFKVDGFAGVQRKKLRDILSVLRDAYCRHVGVEYTHILEPEQQRWIQERVETKHDKPTVAEQKYILSKLNAAEAFETFLQTKYVGQKRFSLEGAETVIPMMDAVIDQCAEHGLDEVVIAMPHRGRLNVLANIVGKPYSQIFSEFEGNLNPSQAHGSGDVKYHLGATGTYIQMFGDNDIEVSLTANPSHLEAVDPVLEGLVRAKQDLLDTGEEGSDNRFSVVPLMLHGDAAFAGQGVVAETLNLALLRGYRTGGTIHIVVNNQIGFTTAPTDSRSSEYCTDVAKMIGAPIFHVNGDDPEACAWVARLAVDFRQAFKKDVVIDMLCYRRRGHNEGDDPSMTQPYMYDVIDTKRGSRKAYTEALIGRGDISMKEAEDALRDYQGQLERVFNEVRELEKHEIEPSESVEADQQIPSKLATAVDKAMLQRIGDAHLALPEGFTVHPRVRPVLEKRREMAYEGRIDWAFAELLALGSLIAEGKLVRLSGQDTQRGTFTQRHAVIVDRKTGEEFTPLQLLATNPDGTPTGGKFLVYNSALSEFAAVGFEYGYSVGNPDAMVLWEAQFGDFVNGAQSIIDEFISSGEAKWGQLSDVVLLLPHGHEGQGPDHTSGRIERFLQLWAEGSMTIAMPSTPANYFHLLRRHGKDGIQRPLIVFTPKSMLRNKAAVSDIRDFTESKFRSVLEEPMYTDGEGDRNKVTRLLLTSGKIYYELAARKAKENREDVAIVRIEQLAPLPRRRLAETLDRYPNVKEKFWVQEEPANQGAWPSFGLTLPEILPDHFTGLKRISRRAMSAPSSGSSKVHAVEQQEILDTAFG"}, "B4": {"name": "OdhAΔ97 (domain or fragment, Corynebacterium glutamicum ATCC13032, UniProt Q8NRC3 98-1221, looked up)", "chain": "KLPEPGQTPIRGIFKSIAKNMDISLEIPTATSVRDMPARLMFENRAMVNDQLKRTRGGKISFTHIIGYAMVKAVMAHPDMNNSYDVIDGKPTLIVPEHINLGLAIDLPQKDGSRALVVAAIKETEKMNFSEFLAAYEDIVARSRKGKLTMDDYQGVTVSLTNPGGIGTRHSVPRLTKGQGTIIGVGSMDYPAEFQGASEDRLAELGVGKLVTITSTYDHRVIQGAVSGEFLRTMSRLLTDDSFWDEIFDAMNVPYTPMRWAQDVPNTGVDKNTRVMQLIEAYRSRGHLIADTNPLSWVQPGMPVPDHRDLDIETHNLTIWDLDRTFNVGGFGGKETMTLREVLSRLRAAYTLKVGSEYTHILDRDERTWLQDRLEAGMPKPTQAEQKYILQKLNAAEAFENFLQTKYVGQKRFSLEGAEALIPLMDSAIDTAAGQGLDEVVIGMPHRGRLNVLFNIVGKPLASIFNEFEGQMEQGQIGGSGDVKYHLGSEGQHLQMFGDGEIKVSLTANPSHLEAVNPVMEGIVRAKQDYLDKGVDGKTVVPLLLHGDAAFAGLGIVPETINLAKLRGYDVGGTIHIVVNNQIGFTTTPDSSRSMHYATDYAKAFGCPVFHVNGDDPEAVVWVGQLATEYRRRFGKDVFIDLVCYRLRGHNEADDPSMTQPKMYELITGRETVRAQYTEDLLGRGDLSNEDAEAVVRDFHDQMESVFNEVKEGGKKQAEAQTGITGSQKLPHGLETNISREELLELGQAFANTPEGFNYHPRVAPVAKKRVSSVTEGGIDWAWGELLAFGSLANSGRLVRLAGEDSRRGTFTQRHAVAIDPATAEEFNPLHELAQSKGNNGKFLVYNSALTEYAGMGFEYGYSVGNEDSIVAWEAQFGDFANGAQTIIDEYVSSGEAKWGQTSKLILLLPHGYEGQGPDHSSARIERFLQLCAEGSMTVAQPSTPANHFHLLRRHALSDLKRPLVIFTPKSMLRNKAAASAPEDFTEVTKFQSVINDPNVADAAKVKKVMLVSGKLYYELAKRKEKDGRDDIAIVRIEMLHPIPFNRISEALAGYPNAEEVLFVQDEPANQGPWPFYQEHLPELIPNMPKMRRVSRRAQSSTATGVAKVHQLEEKQLIDEAFEA"}}, "key": {"[1]": {"target": "B2", "assay": "cryo-EM structure"}, "AUC": {"target": "the molecule itself", "assay": "AUC"}, "crystal structure [2]": {"target": "the molecule itself", "assay": "crystal structure"}, "crystal structure [3]": {"target": "the molecule itself", "assay": "crystal structure", "remark": "listed apart in the source"}}, "data": [{"binder": "B1", "values": [{"measurement": "stoichiometry N", "setting": "[1]", "value": 1}]}, {"binder": "B2", "values": [{"measurement": "stoichiometry N", "setting": "AUC", "value": 6}]}, {"binder": "B3", "values": [{"measurement": "stoichiometry N", "setting": "crystal structure [2]", "value": 6}]}, {"binder": "B4", "values": [{"measurement": "stoichiometry N", "setting": "crystal structure [3]", "value": 6}]}]}
